{"source": "patent US20050186646", "key": {"[1]": {"molecular_target": "T1, recombinant double-tagged VWF-A2 peptide", "T1 chain": "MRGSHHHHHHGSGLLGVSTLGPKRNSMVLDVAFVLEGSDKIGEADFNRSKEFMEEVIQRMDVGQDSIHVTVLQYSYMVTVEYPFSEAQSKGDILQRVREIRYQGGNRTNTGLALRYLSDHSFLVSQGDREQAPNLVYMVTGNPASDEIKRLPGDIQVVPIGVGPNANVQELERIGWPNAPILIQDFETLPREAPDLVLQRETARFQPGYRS"}, "[2]": {"molecular_target": "T2, recombinant single-tagged VWF-A2 peptide", "T2 chain": "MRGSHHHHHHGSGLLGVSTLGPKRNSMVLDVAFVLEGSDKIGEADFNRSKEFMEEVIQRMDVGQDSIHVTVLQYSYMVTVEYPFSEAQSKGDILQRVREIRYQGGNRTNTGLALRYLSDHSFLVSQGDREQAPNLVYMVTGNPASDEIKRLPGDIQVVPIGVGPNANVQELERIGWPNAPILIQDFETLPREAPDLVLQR"}}, "data": [{"protein": "ADAMTS-13 (protein) AAGGILHLELLVAVGPDVFQAHQEDTERYVLTNLNIGAELLRDPSLGAQFRVHLVKMVILTEPEGAPNITANLTSSLLSVCGWSQTINPEDDTDPGHADLVLYITRFDLELPDGNRQVRGVTQLGGACSPTWSCLITEDTGFDLGVTIAHEIGHSFGLEHDGAPGSGCGPSGHVMASDGAAPRAGLAWSPCSRRQLLSLLSAGRARCVWDPPRPQPGSAGHPPDAQPGLYYSANEQCRVAFGPKAVACTFAREHLDMCQALSCHTDPLDQSSCSRLLVPLLDGTECGVEKWCSKGRCRSLVELTPIAAVHGRWSSWGPRSPCSRSCGGGVVTRRRQCNNPRPAFGGRACVGADLQAEMCNTQACEKTQLEFMSQQCARTDGQPLRSSPGGASFYHWGAAVPHSQGDALCRHMCRAIGESFIMKRGDSFLDGTRCMPSGPREDGTLSLCVSGSCRTFGCDGRMDSQQVWDRCQVCGGDNSTCSPRKGSFTAGRAREYVTFLTVTPNLTSVYIANHRPLFTHLAVRIGGRYVVAGKMSISPNTTYPSLLEDGRVEYRVALTEDRLPRLEEIRIWGPLQEDADIQVYRRYGEEYGNLTRPDITFTYFQPKPRQAWVWAAVRGPCSVSCGAGLRWVNYSCLDQARKELVETVQCQGSQQPPAWPEACVLEPCPPYWAVGDFGPCSASCGGGLRERPVRCVEAQGSLLKTLPPARCRAGAQQPAVALETCNPQPCPARWEVSEPSSCTSAGGAGLALENETCVPGADGLEAPVTEGPGSVDEKLPAPEPCVGMSCPPGWGHLDATSAGEKAPSPWGSIRTGAQAAHVWTPAAGSCSVSCGRGLMELRFLCMDSALRVPVQEELCGLASKPGSRREVCQAVPCPARWQYKLAACSVSCGRGVVRRILYCARAHGEDDGEEILLDTQCQGLPRPEPQEACSLEPCPPRWKVMSLGPCSASCGLGTARRSVACVQLDQGQDVEVDEAACAALVRPEASVPCLIADCTYRWHVGTWMECSVSCGDGIQRRRDTCLGPQAQAPVPADFCQHLPKPVTVRGCWAGPCVGQGTPSLVPHEEAAAPGRTTATPAGASLEWSQARGLLFSPAPQPRRLLPGPQENSVQSSACGRQHLEPTGTIDMRGPGQADCAVAIGRPLGEVVTLRVLESSLNCSAGDMLLLWGRLTWRKMCRKLLDMTFSSKTNTLVVRQRCGRPGGGVLLRYGSQLAPETFYRECDMQLFGPWGEIVSPSLSPATSNAGGCRLFINVAPHARIAIHALATNMGAGTEGANASYILIRDTHSLRTTAFHGQQVLYWESESSQAEMEFSEGFLKAQASLRGQYWTLQSWVPEMQDPQSWKGKEGT", "values": [{"measurement": "cleavage of double-tagged VWF-A2 peptide, ELISA (loss of Tag-100 signal)", "setting": "[1]", "result": "the specific cleavage activity by ADAMTS-13 on the VWF-A2 peptide was also demonstrated using three different dilutions of partially isolated ADAMTS-13 (275 µg/mL of total protein) (FIG. 5B)"}, {"measurement": "cleavage of double-tagged VWF-A2 peptide, immunoblot", "setting": "[1]", "result": "The cleavage of the double-tagged VWF-A2 peptide by ADAMTS-13 was efficiently detected by immunoblotting"}, {"measurement": "cleavage of VWF-A2 protein, immunoblot (16 kDa band)", "setting": "[2]", "result": "Healthy plasma (FIG. 2, lane 1), and partially isolated ADAMTS-13 (FIG. 2, lane 3) produced the expected band of 16 kDa"}, {"measurement": "cleavage of recombinant single-tagged VWF-A2 (16 kDa band)", "setting": "[2]", "result": "After one hour incubation, proteolysis by plasma from a healthy individual and the partially isolated enzyme produced the expected 16 kD band corresponding to the sequence 1481-1605 of SEQ ID NO:8 plus the 12 amino acid residues from the His-tag"}]}]}
